Results reported in patent US7829303 (ELAN PHARMACEUTICALS, dated 2010).
Where no end group is shown, it is not given here. [ ]: non-standard residue; d: D form. Sta = CC(C)C[C@H](N)[C@@H](O)CC(=O)O

Molecular target: T1, recombinant human beta secretase (BACE), E. coli construct pQE70-BACE (human, UniProt P56817 57-453)
T1 construct: also called Asp2; memapsin 2
Test: affinity chromatography, peptide immobilised on resin
Experimental: Prior to purification, the pH of the refolded protein was lowered from about 10 to 8.5 with HCl. The solution was loaded onto three 50 ml Q-Sepharose columns (Pharmacia Biotech XK 50). The columns were pre-equilibrated in 0.4 M Urea, 10 mM AMPSO, pH 8.5. After refolded protein was loaded onto the columns, they were washed with 500 ml of 0.4 M Urea, 10 mM TRIS, pH 8.2. The columns were eluted with 180-245 ml of 0.75 M NaCl in 0.4 M Urea 10 mM TRIS buffer, pH 8.2. The eluates were then dialyzed versus 20 mM HEPES, pH 8.0. The samples were then removed from dialysis and dropped into 1 M NaMES, pH 5.7 (0.1 M final concentration). After centrifugation (20 K×g) the supernatant was dropped into 1 M Na-acetate, 1 M NaMES, pH 5.0 (0.2 M Na-acetate, 0.28 M Na-MES was the final concentration). […] This solution was then applied to a 15 ml affinity column equilibrated at the same pH. The column was washed with 6 column volumes of 20 mM sodium acetate buffer pH 4.5, 150 mM NaCl. BACE was eluted at pH 8.5 using about 50 ml of 0.1 M borate buffer. This final step removed any residual contaminants. From 40 liter of *E. coli* cell culture, the amount of protein obtained was 137 mg of highly purified pQE70-BACE construct. Purified pQE70-BACE was dialyzed into 100 mM NaBorate pH 8.5.

T1 sequence (P56817 other isoform, or with tags, fused parts or gaps limits assumed): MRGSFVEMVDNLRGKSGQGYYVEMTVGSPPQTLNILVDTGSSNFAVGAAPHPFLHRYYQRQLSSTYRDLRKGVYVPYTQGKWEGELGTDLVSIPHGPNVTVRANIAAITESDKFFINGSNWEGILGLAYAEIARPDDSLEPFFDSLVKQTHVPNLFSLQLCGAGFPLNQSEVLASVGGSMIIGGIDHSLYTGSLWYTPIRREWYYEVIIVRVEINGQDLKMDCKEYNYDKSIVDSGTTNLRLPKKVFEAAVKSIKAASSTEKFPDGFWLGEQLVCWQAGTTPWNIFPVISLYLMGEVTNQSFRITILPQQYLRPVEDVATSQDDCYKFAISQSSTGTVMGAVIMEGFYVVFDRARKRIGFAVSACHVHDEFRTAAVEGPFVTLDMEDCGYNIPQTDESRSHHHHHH

binding result: binds
Binder: SEVN[Sta]VAEFRGGC [synthetic peptide Ser-Glu-Val-Asn-Sta-Val-Ala-Glu-Phe-Arg-Gly-Gly-Cys (where Sta=statine)]
